Test results from the Human Domainome abundance scans (Beltran et al. 2025).

B1: PDZ and LIM domain protein 2, residues 284 to 339; numbered along this chain, Q96JY6 (parent)
chain: HTCEKCSTSIANQAVRIQEGRYRHPGCYTCADCGLNLKMRGHFWVGDELYCEKHAR

Variants of: B1
Experiment: abundance fitness (aPCA) (normalised: wild type 0, dead -1); higher = more abundant; growth selection in yeast, the domain comes from the species named
Conditions: Homo sapiens

Abundance fitness: each site, then its substitutions
N12: M -0.123 | W -0.78 | S -0.028 | G -0.408 | R -0.73 | A -0.096 | H 0.219 | F -0.494 | K -0.295 | C -0.135 | V -0.206 | I 0.021 | Y -0.622 | E 0.498 | Q -0.044 | D 0.595 | T 0.14
T2: Y -0.31 | R -0.389 | N 0.177 | D -0.305 | M -0.51 | I 0.208 | P -0.66 | K 0.003 | V -0.685 | G -0.899 | H 0.144 | C -0.323 | A -0.578 | L -0.834 | S -0.559 | Q -0.339 | E -0.597
Q13: W -1.19 | F -0.049 | L -0.36 | K -0.501 | D 0.448 | T -0.11 | Y -0.775 | E 0.194 | V -0.327 | I -0.778 | R -0.826 | S -0.128 | A -0.399 | C -0.216 | H -0.767 | G 0.098 | M -0.223 | P -0.227
I10: L -0.413 | D -0.041 | Y -0.809 | M -0.425 | N -0.119 | C -0.062 | S -0.505 | K -0.488 | V -0.187 | G -0.312 | E 0.006 | H -0.735 | W -0.488 | T -0.14 | Q -0.242 | R -0.445
A11: Q -0.253 | F -1.16 | G 0.017 | D 0.321 | R -0.231 | Y -0.643 | L -0.827 | M -0.521 | P 0.118 | T -0.016 | C -0.446 | S 0.196 | N 0.351 | H -0.085
E19: C -0.447 | A -0.165
C6: P -0.336 | N -0.508 | G -0.437 | E -0.382 | Y -0.743 | L -0.597 | F -0.667 | I -0.135 | R -0.266 | K -0.264 | H -0.535 | V -0.282 | T -0.48 | M -0.523 | A -0.408 | D -0.15 | Q -0.199 | W -0.872
H1: M 0.268 | R -0.222 | Q -0.669 | D -0.317 | A -0.24 | G -0.247
R16: Y 0.029 | H 0.004 | A 0.2 | T 0.137 | I 0.172 | W 0.298 | Q 0.308 | F 0.215 | E 0.037 | M 0.2 | G -0.015 | P 0.209 | N 0.191 | K 0.223 | D -0.091 | V 0.146 | L 0.168 | S 0.112 | C 0.32
E4: S 0.014 | Q -0.16 | W -0.276 | P -0.592 | M 0.093 | D -0.063 | K -0.362 | G -0.028 | H 0.069 | R -0.624 | F 0.075 | N 0.14 | Y 0.056 | L -0.473 | A -0.245 | I -0.331 | C 0.033
C3: Q -0.82 | E -0.986 | I -0.471 | R -0.847 | K -0.45 | L -0.978 | G -1.17 | P -0.968 | H -0.399 | F -0.483 | V -0.983 | A -1.1 | S -0.693 | Y -0.436 | T -0.586 | M -0.856 | D -1.02 | W -1.05
T8: L 0.004 | G 0.153 | Q 0.056 | D 0.232 | A 0.308
